The text below walks through data of US20220411487A1.

The experiment addresses catalytically inactive full length human TMPRSS6 on HEK293 cells (HEK293/hTMPRSS6 (S762A)) (human) (UniProt Q8IU80). The experiment in a line: flow cytometry, HEK293 cells expressing target.

In general, EC50 refers to the concentration needed to bring the measured effect to its halfway point. Lower therefore signals an effect from little substance.

Chain of catalytically inactive full length human TMPRSS6 on HEK293 cells (HEK293/hTMPRSS6 (S762A)) (human) (Q8IU80 10-811 S762A): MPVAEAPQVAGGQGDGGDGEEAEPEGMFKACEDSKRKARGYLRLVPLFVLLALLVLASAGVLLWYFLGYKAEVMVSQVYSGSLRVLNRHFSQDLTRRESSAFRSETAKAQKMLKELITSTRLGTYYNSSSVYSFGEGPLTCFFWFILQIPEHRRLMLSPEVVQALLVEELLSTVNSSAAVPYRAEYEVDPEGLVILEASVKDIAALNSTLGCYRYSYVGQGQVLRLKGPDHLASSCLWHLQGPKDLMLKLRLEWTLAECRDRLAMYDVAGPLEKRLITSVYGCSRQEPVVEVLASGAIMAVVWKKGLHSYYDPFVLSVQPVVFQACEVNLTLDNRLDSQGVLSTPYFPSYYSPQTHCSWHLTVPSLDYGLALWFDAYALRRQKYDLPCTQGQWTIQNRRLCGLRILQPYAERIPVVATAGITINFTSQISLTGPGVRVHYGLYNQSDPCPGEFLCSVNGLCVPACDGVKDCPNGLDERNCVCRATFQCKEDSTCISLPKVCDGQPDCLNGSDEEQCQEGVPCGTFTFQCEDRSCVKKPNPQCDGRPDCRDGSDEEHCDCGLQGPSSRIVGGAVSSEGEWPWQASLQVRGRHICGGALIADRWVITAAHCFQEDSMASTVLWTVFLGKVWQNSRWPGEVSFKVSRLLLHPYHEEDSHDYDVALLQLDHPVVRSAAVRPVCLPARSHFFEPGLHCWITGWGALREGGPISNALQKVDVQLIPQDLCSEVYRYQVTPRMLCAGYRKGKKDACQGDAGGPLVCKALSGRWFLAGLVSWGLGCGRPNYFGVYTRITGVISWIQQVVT

B1: REGN8023 (antibody, human IgG4 S228P, kappa, V domains shown)
VH: EVQLVESGGGLVKPGGSLRISCAASGFIFVDYAMHWVRQAPGKGLEWVSGISWNSGSIGYADSVKGRFTISRDNAKKSLYLQMSGLRPEDTALYYCVKSGFYYVRSYFDNWGQGTLVTVSS
VL: DIVMTQSPLSLPVTPGEPASISCRSSQSLLDSDDGNTYLDWYLRKPGQSPQLLIYTLSYRASGVPDRFSGSGSGTDFTLKISRVEADDVGVYYCMQRIEFPLTFGGGTKVEIKR
As for B1, the EC50 came out at 2 nM and the Max. Fold Binding (fold over unstained control) was 300.
